Values belong to the substance of their own block, whether it stands above or below them.
What was measured:
[1] = biological target: HvPho1ΔL78 (HvPho1 lacking the L78 insertion) (barley (Hordeum vulgare)); test: SEC; single recombinant proteins on HiLoad Superdex S-200 26/60, 25 mM HEPES pH 7.5, 50 mM NaCl; apparent molecular weight by column calibration; peak fractions also analysed by DLS at 25°C
[2] = biological target: branching enzyme IIb (HvBeIIb) of barley endosperm extract (barley (endogenous in Hordeum vulgare 'QUENCH' endosperm)); test: SEC; total barley endosperm soluble protein on a 26/60 Superdex S-200 column; fractions analysed by immunoblot (anti-HvPho1, anti-HvBeIIb polyclonal antibodies) and native activity gels; extract with or without 1 mM ATP and 2.5 mM protein phosphatase inhibitor cocktail before SEC
[3] = biological target: recombinant barley plastidic starch phosphorylase (HvPho1) (barley (Hordeum vulgare)); test: cross-linking; recombinant HvPho1 (1 mg/ml) in 20 mM HEPES pH 7.5 treated with glutaraldehyde (0.15% v/v) for 0.5 to 30 min at 37°C; SDS-PAGE
[4] = biological target: recombinant barley plastidic starch phosphorylase (HvPho1) (barley (Hordeum vulgare)); test: SEC; single recombinant proteins on HiLoad Superdex S-200 26/60, 25 mM HEPES pH 7.5, 50 mM NaCl; apparent molecular weight by column calibration; peak fractions also analysed by DLS at 25°C

stoichiometry N [1]: 2
Substance: HvPho1ΔL78 (HvPho1 lacking the L78 insertion) (enzyme)

stoichiometry N [2]: 2
Substance: branching enzyme IIb (HvBeIIb) of barley endosperm extract

stoichiometry N [3]: 2
stoichiometry N [4]: 2
Substance: recombinant barley plastidic starch phosphorylase (HvPho1) (enzyme)

From PMC5391026
